Columns and labels:
[1] = cited from earlier work
[2] = tested on: CN3 yeast strain host cells; test: Detection of glycosylated cannabinoids and cannabinoid precursors in yeast cells expressing UDP-glycosyl transferase (HPLC-MS); type: cell-based; set-up: key to CBDA-glc / OLA-glc / CBGA-glc / CBGA-(glc)2 / CBD-glc / CBD-(glc)2 / OLA-(glc)2 / CBGA-glucuronic acid: (+) represents the lowest detected quantities; (++), (+++), and (++++) signify relative increasing intermediate detected levels; (++), (+++), and (++++) signify relative increasing intermediate detected levels; (++), (+++), and (++++) signify relative increasing intermediate detected levels; (+++++) represents the highest detected quantities; No detectable levels of a glycosylated cannabinoid compound or glycosylated cannabinoid precursor compound are indicated by “n.d.”; conditions: for CBD-glc: 0.5 g/L CBD; for production of glycosylated cannabinoids or cannabinoid precursor compounds: pellet or supernatant of recombinant yeast host cells transformed with the UGT
Summary of the method: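 CN3 yeast host cells carrying a heterologous UDP-glycosyl transferase gene were grown overnight in YPD, then diluted into YPG to OD600 = 0.2 and shaken at 600 RPM and 28° C. Cell pellets and supernatants were extracted for 1 hour in 80 % Acetonitrile/20 % Methanol, centrifuged at 12,000 RPM, filtered (0.22 µm), and checked for glycosylated cannabinoids and precursors by HPLC and negative-mode ESI QToF HPLC-MS.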

[3] = tested on: bacterial strain BL21 (DE3); test: CBDA depletion in BL21 (DE3) strains expressing UGTs (UHPLC-MS); type: cell-based; conditions: 0.1 mM CBDA, induced with 100 µM IPTG for 4h at 37° C. vs controls without induction
From the text: The following cDNAs encoding UGTs from Arabidopsis thaliana, Cannabis sativa and Helianthus annuus UGTs were cloned into pDONOR-zeo (as described in Example 1) and then recombined into the prokaryotic expression vector pDEST14: AtUGT73C6 (SEQ ID NO: 3), AtUGT88A1 (SEQ ID NO: 5), AtUGT71 D1 (SEQ ID NO: 7), AtUGT73B4 (SEQ ID NO: 9), AtUGT76C4 (SEQ ID NO: 11), AtUGT76E12 (SEQ ID NO: 13), and At5g49690 (SEQ ID NO: 17), CsUGT73C6 (SEQ ID NO: 15), HaUGT76G1L (SEQ ID NO: 1), and SrUGT76G1 (SEQ ID NO: 19). Host cells from the bacterial strain BL21 (DE3) were transformed individually pDEST14 vector.
A BL21 (DE3) single colony was inoculated in liquid media and incubated at 37° C. overnight. The bacterial cultures were diluted to a final 0.6 OD and CBDA was added to a final concentration of 0.1 mM. The cultures were split, and half was induced with 100 µM IPTG for 4h at 37° C. to express the UGTs and the other half was kept as controls without induction of UGT expression.
Subsequently, samples were treated with a 1:1 volume of acetonitrile for 15 minutes at 250 RPM. After 30 minutes centrifugation at 4,000 RPM, samples were diluted 1000-fold in the same solvent for further analysis.
CBDA depletion was assayed employing UHPLC-MS analysis. The instrument used was a Thermo Vanquish UHPLC connected to a Thermo TSQ Altis mass spectrometer. The UHPLC consists of a vacuum degasser, a ternary pump, a thermostated autosampler held at 5° C., and a thermostated column compartment. An Accucore C18 (150 × 2.2 mm, 2.6 µm, Thermo, USA) was used. The mobile phase is water with 0.1 % formic acid (A) and acetonitrile with 0.1 % formic acid (B) on a linear gradient (see Table 5). The flow rate was set at 0.800 mL/min. The column temperature was set at 30° C. The sample injection volume was 1 µL.
MS analyses were carried out in order to ensure the identity of the peaks and were performed on a Thermo TSQ Altis triple quadrupole mass spectrometer using electrospray ionization in negative mode. Compounds were analyzed using selected reaction monitoring using two ion pairs for quantitation and confirmation respectively.

[4] = 20 h growth, detected in PELLET, 0.05 mM hexanoic acid

For `CCCCCc1cc(O)c2c(c1)OC(C)(C)C1CCC(C)=CC21` (centres unmarked) [Δ^9-THC, Δ^9-tetrahydrocannabinol], the solubility in water [1] is listed as “less than 0.01 mg/ml”.

B1: AtUGT71 D1: UDP-glycosyl transferase from Arabidopsis thaliana, amino acid sequence SEQ ID NO: 8 (protein, listed as Arabidopsis thaliana)
chain: MRNVELIFIPTPTVGHLVPFLEFARRLIEQDDRIRITILLMKLQGQSHLDTYVKSIASSQPFVRFIDVPELEEKPTLGSTQSVEAYVYDVIERNIPLVRNIVMDILTSLALDGVKVKGLVVDFFCLPMIDVAKDISLPFYVFLTTNSGFLAMMQYLADRHSRDTSVFVRNSEEMLSIPGFVNPVPANVLPSALFVEDGYDAYVKLAILFTKANGILVNSSFDIEPYSVNHFLQEQNYPSVYAVGPIFDLKAQPHPEQDLTRRDELMKWLDDQPEASVVFLCFGSMARLRGSLVKEIAHGLELCQYRFLWSLRKEEVTKDDLPEGFLDRVDGRGMICGWSPQVEILAHKAVGGFVSHCGWNSIVESLWFGVPIVTWPMYAEQQLNAFLMVKELKLAVELKLDYRVHSDEIVNANEIETAIRYVMDTDNNVVRKRVMDISQMIQRATKNGGSSFAAIEKFIYDVIGIKP
With B1 the CBDA-glc [2, 4] was “++”, the CBGA-glc [2, 4] was “+” and the OLA-glc [2, 4] was “++”. For the same molecule, the CBD-glc ([2]; 20 h growth, detected in PELLET) was “+++”, the OLA-glc ([2]; 20 h growth, detected in SUPERNATANT, 0.2 mM hexanoic acid) was “++” and the CBD-glc ([2]; 20 h growth, detected in SUPERNATANT) was “+++”. The “production of glycosylated cannabinoids or cannabinoid precursor compounds” value (“production” for short) [2] was “detected” and the “decrease in CBDA content” value [3] was 9%.

B2: At5g49690: UDP-glycosyl transferase from Arabidopsis thaliana, amino acid sequence SEQ ID NO: 18 (protein, listed as Arabidopsis thaliana)
chain: MVDKREEVMHVAMFPWLAMGHLLPFLRLSKLLAQKGHKISFISTPRNIERLPKLQSNLASSITFVSFPLPPISGLPPSSESSMDVPYNKQQSLKAAFDLLQPPLKEFLRRSSPDWIIYDYASHWLPSIAAELGISKAFFSLFNAATLCFMGPSSSLIEEIRSTPEDFTVVPPWVPFKSNIVFRYHEVTRYVEKTEEDVTGVSDSVRFGYSIDESDAVFVRSCPEFEPEWFGLLKDLYRKPVFPIGFLPPVIEDDDAVDTTWVRIKKWLDKQRLNSVVYVSLGTEASLRHEEVTELALGLEKSETPFFWVLRNEPKIPDGFKTRVKGRGMVHVGWVPQVKILSHESVGGFLTHCGWNSVVEGLGFGKVPIFFPVLNEQGLNTRLLHGKGLGVEVSRDERDGSFDSDSVADSIRLVMIDDAGEEIRAKAKVMKDLFGNMDENIRYVDELVRFMRSKGSSSSS
With B2 the CBDA-glc [2, 4] was “+”, the “production” value [2] was “detected” and the “decrease in CBDA content” value [3] was 9%.

B3: SrUGT76G1: UDP-glycosyl transferase from Stevia rebaudiana, amino acid sequence SEQ ID NO: 20 (protein, listed as Stevia rebaudiana)
chain: MENKTETTVRRRRRIILFPVPFQGHINPILQLANVLYSKGFSITIFHTNFNKPKTSNYPHFTFRFILDNDPQDERISNLPTHGPLAGMRIPIINEHGADELRRELELLMLASEEDEEVSCLITDALWYFAQSVADSLNLRRLVLMTSSLFNFHAHVSLPQFDELGYLDPDDKTRLEEQASGFPMLKVKDIKSAYSNWQILKEILGKMIKQTRASSGVIWNSFKELEESELETVIREIPAPSFLIPLPKHLTASSSSLLDHDRTVFQWLDQQPPSSVLYVSFGSTSEVDEKDFLEIARGLVDSKQSFLWVVRPGFVKGSTWVEPLPDGFLGERGRIVKWVPQQEVLAHGAIGAFWTHSGWNSTLESVCEGVPMIFSDFGLDQPLNARYMSDVLKVGVYLENGWERGEIANAIRRVMVDEEGEYIRQNARVLKQKADVSLMKGGSSYESLESLVSYISSL
With B3 the “production” value [2] was “No production” and the “decrease in CBDA content” value [3] was 21%.
